# Test results taken from patent US20180244784A1 (published 2018).
# B1: human VEGFR-2/Fc (R&D Systems) (Fc fusion)
# chain: ASVGLPSVSLDLPRLSIQKDILTIKANTTLQITCRGQRDLDWLWPNNQSGSEQRVEVTECSDGLFCKTLTIPKVIGNDTGAYKCFYRETDLASVIYVYVQDYRSPFIASVSDQHGVVYITENKNKTVVIPCLGSISNLNVSLCARYPEKRFVPDGNRISWDSKKGFTIPSYMISYAGMVFCEAKINDESYQSIMYIVVVVGYRIYDVVLSPSHGIELSVGEKLVLNCTARTELNVGIDFNWEYPSSKHQHKKLVNRDLKTQSGSEMKKFLSTLTIDGVTRSDQGLYTCAASSGLMTKKNSTFVRVHEKPFVAFGSGMESLVEATVGERVRIPAKYLGYPPPEIKWYKNGIPLESNHTIKAGHVLTIMEVSERDTGNYTVILTNPISKEKQSHVVSLVVYVPPQIGEKSLISPVDSYQYGTTQTLTCTVYAIPPPHHIHWYWQLEEECANEPSQAVSVTNPYPCEEWRSVEDFQGGNKIEVNKNQFALIEGKNKTVSTLVIQAANVSALYKCEAVNKVGRGERVISFHVTRGPEITLQPDMQPTEQESVSLWCTADRSTFENLTWYKLGPQPLPIHVGELPTPVCKNLDTLWKLNATMFSNSTNDILIMELKNASLQDQGDYVCLAQDRKTKKRHCVVRQLTVLERVAPTITGNLENQTTSIGESIEVSCTASGNPPPQIMWFKDNETLVEDSGIVLKDGNRNLTIRRVRKEDEGLYTCQACSVLGCAKVEAFFIIEGAQEKTNLE
# notes: also called recombinant VEGFR2/Fc; VEGFR/Fc; not shown: Fc part of the bought fusion; It was captured by goat anti-human IgG-Fc in the ELISA
# How the values were obtained:
# [1] = target: T1, AB1m (SEQ ID NO:9)-DOS47 antibody-urease conjugate (jack bean (Canavalia ensiformis), UniProt P07374 1-840); experiment: ELISA, urease conjugates on VEGFR2/Fc
# T1 construct: also called AB1-DOS47
# T1 sequence (VHH, as listed by the source limits assumed, chain 1 of 2): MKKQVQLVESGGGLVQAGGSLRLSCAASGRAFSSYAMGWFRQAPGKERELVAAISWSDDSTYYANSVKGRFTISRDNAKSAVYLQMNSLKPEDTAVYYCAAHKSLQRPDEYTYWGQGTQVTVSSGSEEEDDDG
# T1 sequence (P07374 whole entry, chain 2 of 2): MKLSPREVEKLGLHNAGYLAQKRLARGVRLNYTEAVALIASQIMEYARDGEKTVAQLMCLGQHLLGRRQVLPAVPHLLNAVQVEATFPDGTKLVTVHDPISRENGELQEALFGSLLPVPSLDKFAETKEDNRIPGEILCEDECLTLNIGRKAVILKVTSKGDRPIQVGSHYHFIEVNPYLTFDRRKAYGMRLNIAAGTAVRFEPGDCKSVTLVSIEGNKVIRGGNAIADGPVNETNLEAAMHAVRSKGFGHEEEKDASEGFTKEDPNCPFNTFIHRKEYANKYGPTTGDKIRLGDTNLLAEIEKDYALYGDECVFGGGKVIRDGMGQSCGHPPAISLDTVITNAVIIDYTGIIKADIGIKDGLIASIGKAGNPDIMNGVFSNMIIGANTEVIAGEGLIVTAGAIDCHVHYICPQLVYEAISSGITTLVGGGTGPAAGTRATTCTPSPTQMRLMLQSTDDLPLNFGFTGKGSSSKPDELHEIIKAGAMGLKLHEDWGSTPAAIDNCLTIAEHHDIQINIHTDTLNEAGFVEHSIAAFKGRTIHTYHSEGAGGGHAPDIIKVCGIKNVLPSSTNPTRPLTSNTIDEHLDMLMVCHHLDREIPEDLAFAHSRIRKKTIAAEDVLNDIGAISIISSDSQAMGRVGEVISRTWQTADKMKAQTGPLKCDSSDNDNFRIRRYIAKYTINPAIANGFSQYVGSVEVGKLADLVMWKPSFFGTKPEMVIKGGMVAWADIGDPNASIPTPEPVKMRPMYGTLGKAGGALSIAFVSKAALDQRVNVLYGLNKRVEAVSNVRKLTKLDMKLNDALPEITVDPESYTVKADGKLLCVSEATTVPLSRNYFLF
# [2] = target: T2, AB2 (SEQ ID NO:13)-DOS47 antibody-urease conjugate (jack bean (Canavalia ensiformis), UniProt P07374 1-840); experiment: ELISA, urease conjugates on VEGFR2/Fc
# T2 construct: also called AB2-DOS47
# T2 sequence (P07374 whole entry): as the sequence (P07374 whole entry, chain 2 of 2) above
# [3] = target: T3, AB3m (SEQ ID NO:23)-DOS47 antibody-urease conjugate (jack bean (Canavalia ensiformis), UniProt P07374 1-840); experiment: ELISA, urease conjugates on VEGFR2/Fc
# T3 construct: also called AB3-DOS47
# T3 sequence (VH, as listed by the source limits assumed, chain 1 of 2): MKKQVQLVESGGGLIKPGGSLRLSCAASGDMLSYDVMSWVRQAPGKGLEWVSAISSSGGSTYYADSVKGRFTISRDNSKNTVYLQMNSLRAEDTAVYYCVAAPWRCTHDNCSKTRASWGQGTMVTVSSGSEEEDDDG
# T3 sequence (P07374 whole entry, chain 2 of 2): as the sequence (P07374 whole entry, chain 2 of 2) above
# [4] = target: T4, AB4 (SEQ ID NO:27)-DOS47 antibody-urease conjugate (jack bean (Canavalia ensiformis), UniProt P07374 1-840); experiment: ELISA, urease conjugates on VEGFR2/Fc
# T4 construct: also called AB4-DOS47
# T4 sequence (VHH, as listed by the source limits assumed, chain 1 of 2): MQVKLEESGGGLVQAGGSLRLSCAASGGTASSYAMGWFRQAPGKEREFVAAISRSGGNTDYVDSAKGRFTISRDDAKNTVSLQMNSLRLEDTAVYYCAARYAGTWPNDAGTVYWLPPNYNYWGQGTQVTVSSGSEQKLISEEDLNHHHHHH
# T4 sequence (P07374 whole entry, chain 2 of 2): as the sequence (P07374 whole entry, chain 2 of 2) above
# [5] = target: T5, V21H4-DOS47 (V21H4, SEQ ID NO:6, conjugated to urease through BM(PEG)2) (jack bean (Canavalia ensiformis), UniProt P07374 1-840); experiment: ELISA, VEGFR2/Fc captured on anti-human IgG-Fc, conjugate detected with anti-urease
# T5 construct: also called V21-DOS47
# T5 sequence (VHH, as listed by the source limits assumed, chain 1 of 2): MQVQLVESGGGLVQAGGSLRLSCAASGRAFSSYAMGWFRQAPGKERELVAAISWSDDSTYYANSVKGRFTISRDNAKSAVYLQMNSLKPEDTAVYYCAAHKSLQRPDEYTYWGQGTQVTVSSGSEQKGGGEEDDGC
# T5 sequence (P07374 whole entry, chain 2 of 2): as the sequence (P07374 whole entry, chain 2 of 2) above
# [6] = target: V21H1-DOS47 (V21H1, SEQ ID NO:3, conjugated to urease through SM(PEG)2) (jack bean (Canavalia ensiformis), UniProt P07374 1-840); experiment: as above
# Sequence of V21H1-DOS47 (V21H1, SEQ ID NO:3, conjugated to urease through SM(PEG)2) (VHH, as listed by the source limits assumed, chain 1 of 2): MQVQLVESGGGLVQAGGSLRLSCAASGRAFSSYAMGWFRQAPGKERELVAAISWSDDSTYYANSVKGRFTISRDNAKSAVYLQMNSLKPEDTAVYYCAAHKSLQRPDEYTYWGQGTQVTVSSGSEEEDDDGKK
# Sequence of V21H1-DOS47 (V21H1, SEQ ID NO:3, conjugated to urease through SM(PEG)2) (P07374 whole entry, chain 2 of 2): as the sequence (P07374 whole entry, chain 2 of 2) above
# [7] = target: T6, V21H4-DOS47 with 5.1 antibodies per urease (Canavalia ensiformis, UniProt P07374); experiment: as above
# T6 construct: subunit of the homohexameric enzyme
# T6 sequence (P07374 whole entry, chain 2 of 2): as above
# [8] = target: T7, V21H4-DOS47 with 6.6 antibodies per urease (Canavalia ensiformis, UniProt P07374); experiment: as above
# T7 construct: subunit of the homohexameric enzyme
# T7 sequence (P07374 whole entry, chain 2 of 2): as above
# [9] = target: T8, V21H4-DOS47 with 7.2 antibodies per urease (Canavalia ensiformis, UniProt P07374); experiment: as above
# T8 construct: subunit of the homohexameric enzyme
# T8 sequence (P07374 whole entry, chain 2 of 2): as above
# [10] = target: T9, V21H4-DOS47 with 8.7 antibodies per urease (Canavalia ensiformis, UniProt P07374); experiment: as above
# T9 construct: subunit of the homohexameric enzyme
# T9 sequence (P07374 whole entry, chain 2 of 2): as above
# [11] = target: V21H4-DOS47 with 1.4 antibodies per urease (jack bean (Canavalia ensiformis), UniProt P07374 1-840); experiment: as above
# Sequence of V21H4-DOS47 with 1.4 antibodies per urease (P07374 whole entry, chain 2 of 2): as above
# [12] = target: V21H4-DOS47 with 2.3 antibodies per urease (jack bean (Canavalia ensiformis), UniProt P07374 1-840); experiment: as above
# Sequence of V21H4-DOS47 with 2.3 antibodies per urease (P07374 whole entry, chain 2 of 2): as above
# [13] = target: V21H4-DOS47 with 3.3 antibodies per urease (jack bean (Canavalia ensiformis), UniProt P07374 1-840); experiment: as above
# Sequence of V21H4-DOS47 with 3.3 antibodies per urease (P07374 whole entry, chain 2 of 2): as above
# [14] = target: V21H4-DOS47 with 9.4 antibodies per urease (jack bean (Canavalia ensiformis), UniProt P07374 1-840); experiment: as above
# Sequence of V21H4-DOS47 with 9.4 antibodies per urease (P07374 whole entry, chain 2 of 2): as above
# [15] = target: T10, mouse VEGFR-2/Fc (R&D Systems) (mouse, UniProt P35918 20-762); experiment: SPR (Biacore 3000), immobilized mouse VEGFR-2/Fc
# T10 construct: not shown: Fc part of the bought fusion, not described
# T10 sequence (P35918 20-762 limits assumed): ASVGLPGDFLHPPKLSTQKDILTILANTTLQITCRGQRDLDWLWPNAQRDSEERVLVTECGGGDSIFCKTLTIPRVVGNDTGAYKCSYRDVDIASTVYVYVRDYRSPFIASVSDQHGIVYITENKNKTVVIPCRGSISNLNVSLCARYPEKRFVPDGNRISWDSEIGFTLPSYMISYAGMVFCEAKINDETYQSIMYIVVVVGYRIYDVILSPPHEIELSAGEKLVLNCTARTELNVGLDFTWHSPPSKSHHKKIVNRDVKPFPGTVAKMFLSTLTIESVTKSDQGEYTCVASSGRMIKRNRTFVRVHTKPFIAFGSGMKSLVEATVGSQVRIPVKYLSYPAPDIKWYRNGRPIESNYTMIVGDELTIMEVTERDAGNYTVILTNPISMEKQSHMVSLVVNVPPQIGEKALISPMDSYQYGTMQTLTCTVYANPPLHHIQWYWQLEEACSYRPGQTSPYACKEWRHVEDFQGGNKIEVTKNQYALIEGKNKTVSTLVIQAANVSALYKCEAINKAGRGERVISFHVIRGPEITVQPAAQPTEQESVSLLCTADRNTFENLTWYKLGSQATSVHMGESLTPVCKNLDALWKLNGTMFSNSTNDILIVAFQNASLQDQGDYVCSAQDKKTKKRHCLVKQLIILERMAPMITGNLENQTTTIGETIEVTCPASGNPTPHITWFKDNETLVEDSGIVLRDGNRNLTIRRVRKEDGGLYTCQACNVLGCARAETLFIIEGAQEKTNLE
# [16] = target: B1; experiment: SPR (Biacore 3000), sdAb monomer over amine-coupled human VEGFR-2/Fc, 25 C
# [17] = target: T11, human VEGFR2 (KDR) expressed on 293/KDR cells (human, UniProt P35968 20-1356); experiment: flow cytometry on 293/KDR cells, detected with PE-streptavidin
# [18] = target: T11, human VEGFR2 (KDR) expressed on 293/KDR …; experiment: flow cytometry on 293/KDR cells, S/N against the biotin-isotype control
# [19] = target: B1; experiment: ELISA, VEGFR2/Fc captured by anti-human IgG-Fc, biotin-V21H4 detected with streptavidin-AP; antibody alone, not conjugated
# [20] = target: B1; experiment: ELISA, VEGFR2/Fc captured on anti-human IgG-Fc, biotinylated antibody detected with streptavidin-alkaline phosphatase
# [21] = target: B1; experiment: SPR (Biacore 3000), sdAb monomer over amine-coupled human VEGFR-2/Fc, 25 C; constants estimated from transformed data (FIG. 3)
# [22] = target: T1, AB1m (SEQ ID NO:9)-DOS47 …; experiment: ELISA, VEGFR3/Fc captured by anti-human IgG-Fc, conjugate detected with anti-urease
# [23] = target: T2, AB2 (SEQ ID NO:13)-DOS47 …; experiment: as above
# [24] = target: T3, AB3m (SEQ ID NO:23)-DOS47 …; experiment: as above
# [25] = target: T4, AB4 (SEQ ID NO:27)-DOS47 …; experiment: as above
binder,measurement,setting,value
B1,binding result,[1],binds
same,binding result,[2],binds
same,binding result,[3],binds
same,binding result,[4],binds
same,binding result,[5],binds
same,binding result,[6],binds
same,binding result,[7],binds
same,binding result,[8],binds
same,binding result,[9],binds
same,binding result,[10],binds
same,binding result,[11],binds
same,binding result,[12],binds
same,binding result,[13],binds
same,binding result,[14],binds
"AB4 with linker 2 (SEQ ID NO:27) (VHH, also called VR2-38; V38 with c-Myc/His6 tail) VHH: QVKLEESGGGLVQAGGSLRLSCAASGGTASSYAMGWFRQAPGKEREFVAAISRSGGNTDYVDSAKGRFTISRDDAKNTVSLQMNSLRLEDTAVYYCAARYAGTWPNDAGTVYWLPPNYNYWGQGTQVTVSS",binding result,[15],no binding (tested: 150-200 nM)
"AB3 with linker 2 (SEQ ID NO:21) (other, also called VR2-801-45; V45 with c-Myc/His5 tail) VH: MQVQLVESGGGLIKPGGSLRLSCAASGDMLSYDVMSWVRQAPGKGLEWVSAISSSGGSTYYADSVKGRFTISRDNSKNTVYLQMNSLRAEDTAVYYCVAAPWRCTHDNCSKTRASWGQGTMVTVSSGSEQKLISEEDLNHHHHH",binding result,[15],no binding (tested: 150-200 nM)
same,Kd,[16],900 nM
same,koff,[16],0.045 s⁻¹
same,kon,[16],53000 M⁻¹ s⁻¹
"biotin-V21H4 (biotinylated AB1 antibody, SEQ ID NO:6) (VHH, also called V21H4 antibody alone; AB1C) VHH: QVQLVESGGGLVQAGGSLRLSCAASGRAFSSYAMGWFRQAPGKERELVAAISWSDDSTYYANSVKGRFTISRDNAKSAVYLQMNSLKPEDTAVYYCAAHKSLQRPDEYTYWGQGTQVTVSS",EC50,[17],1.6 nM
same,EC50 (read off the curve),[18],~2 nM
same,EC50,[19],1.8 nM
same,EC50 (read off the curve),[20],~2 nM
"AB1 with linker 2 (SEQ ID NO:7) (VHH, also called VR2-21; V21 with c-Myc/His6 tail) VHH: QVQLVESGGGLVQAGGSLRLSCAASGRAFSSYAMGWFRQAPGKERELVAAISWSDDSTYYANSVKGRFTISRDNAKSAVYLQMNSLKPEDTAVYYCAAHKSLQRPDEYTYWGQGTQVTVSS",binding result,[15],no binding (tested: 150-200 nM)
same,Kd,[21],~80 nM
same,koff,[21],< 0.01 s⁻¹
same,kon,[21],~60000 M⁻¹ s⁻¹
"AB2 with linker 2 (SEQ ID NO:13) (other, also called VR2-801-18; V18 with c-Myc/His5 tail) VH: MQVQLVESGGGLIKPGGSLRLSCAASGFRFSAESMTWVRQAPGKGLEWVSAISSSGGSTYYADSVKGRFTISRDNSKNTVYLQMNSLRAEDTAVYYCVRSPKGCTHASCSWNSGSWGQGTLVTVSSGSEQKLISEEDLNHHHHH",binding result,[15],no binding (tested: 150-200 nM)
same,Kd,[16],500 nM
same,koff,[16],0.02 s⁻¹
same,kon,[16],46000 M⁻¹ s⁻¹
"VEGFR3/Fc (R&D Systems) (Fc fusion, not shown: Fc part, captured by goat anti-human IgG-Fc; not described further) YSMTPPTLNITEESHVIDTGDSLSISCRGQHPLEWAWPGAQEAPATGDKDSEDTGVVRDCEGTDARPYCKVLLLHEVHANDTGSYVCYYKYIKARIEGTTAASSYVFVRDFEQPFINKPDTLLVNRKDAMWVPCLVSIPGLNVTLRSQSSVLWPDGQEVVWDDRRGMLVSTPLLHDALYLQCETTWGDQDFLSNPFLVHITGNELYDIQLLPRKSLELLVGEKLVLNCTVWAEFNSGVTFDWDYPGKQAERGKWVPERRSQQTHTELSSILTIHNVSQHDLGSYVCKANNGIQRFRESTEVIVHENPFISVEWLKGPILEATAGDELVKLPVKLAAYPPPEFQWYKDGKALSGRHSPHALVLKEVTEASTGTYTLALWNSAAGLRRNISLELVVNVPPQIHEKEASSPSIYSRHSRQALTCTAYGVPLPLSIQWHWRPWTPCKMFAQRSLRRRQQQDLMPQCRDWRAVTTQDAVNPIESLDTWTEFVEGKNKTVSKLVIQNANVSAMYKCVVSNKVGQDERLIYFYVTTIPDGFTIESKPSEELLEGQPVLLSCQADSYKYEHLRWYRLNLSTLHDAHGNPLLLDCKNVHLFATPLAASLEEVAPGARHATLSLSIPRVAPEHEGHYVCEVQDRRSHDKHCHKKYLSVQALEAPRLTQNLTDLLVNVSDSLEMQCLVAGAHAPSIVWYKDERLLEEKSGVDLADSNQKLSIQRVREEDAGRYLCSVCNAKGCVNSSASVAVEGSEDKGSMEI",binding result,[22],no binding
same,binding result,[23],no binding
same,binding result,[24],no binding
same,binding result,[25],no binding
